Values quoted from earlier work in paper PMC9163320.

Molecular target: Asp303 (UniProt position 303, VILFMDRNLEQ)
Assay: NMR
Settings: folded Hint domain; no ligand stated

Row | Substance | pKa
1 | Hedgehog protein, Hint domain of the C-terminal autoprocessing domain (HhC) (Drosophila melanogaster) | 5.6
2 | Hedgehog protein, Hint domain of HhC, C258A mutant (Drosophila melanogaster; C258A) | 4.2
